What all share (format): cell-based, human
The subject of test [1] is parental PD-1negative NK-92 cells. Kind of test: IL-18BP mediated inhibition of IFN gamma secretion in parental PD-1 negative NK-92 cells (Example 18). Conditions: IL-18BP-mediated inhibition of IFNγ secretion, IL-18 analyte 1 nM. How it is done: (§1) To characterize the resistance of anti-PD1-IL18 immunocytokines (IC) on PD-1 positive cells, the NK-92 cell line was used to generate a PD-1 expressing cell line and furthermore, to measure the inhibition of IFN[…] release upon incubation with IL-18 variants and ICs in the presence of increasing quantities of human IL-18BP.
(§2) On the day of experiment, parental PD-1^negative and PD-1^positive transduced cells were harvested and washed with PBS 1× and resuspended in medium (w/o IL-2) containing 1 ng/ml of recombinant human Interleukin-12 (SinoBiologicals, Cat #CT011-H08H). After counting, cells were seeded at 100 000 cells/well in a 384 well culture plate and incubated at 37° C./5% CO2. When indicated, cells were preincubated with anti-PD-1 antibody LZM-009 at 17 uM during 30 min at 37° C. […]
(§3) After 16-20 h incubation at 37° C./5% CO2, 5 μl of supernatant were carefully transferred to a 384 microwell OptiIPlate (Perkin Elmer; Cat #6007270) and Interferon-gamma (IFNγ) levels measured using the Human IFNγ AlphaLISA Assay Kit (Perkin Elmer, Cat #AL217C). […] AlphaLISA signal was then measured on an Enspire plate reader (Perkin Elmer) using 680 and 615 nm as excitation and emission wavelengths respectively. Half maximal inhibitory concentration (IC50) was calculated based on a variable slope, four parameter analysis using GraphPad PRISM software.

Test [2] relates to PD-1positive transduced NK-92 cells. Put plainly: IL-18BP mediated inhibition of IFN gamma secretion in PD-1 positive transduced NK-92 cells (Example 18). As to the method: as §1, §2, §3
Test [3] relates to parental PD-1 negative KG-1 cells. Put plainly: IFN gamma secretion assay in parental PD-1 negative KG-1 cells (Example 11). Particulars: IFNγ secretion. As to the method: The KG-1 cell line was used to generate a PD-1 expressing cell line and furthermore, to measure IFNγ release upon incubation with IL-18 variants and corresponding IL-18 immunocytokines.
IFNγ release was assessed in PD-1 positive (transduced) KG-1 cells, as well as in the parental PD-1 negative cells. 0.5×10^5 cells were seeded into a 96-well U-bottom plate in culture media (RPMI, 10% FBS, 1% L-Glutamine) and stimulated with IL-18 variants/ICs for 20-24 h. The test items were diluted to 100 nM in culture medium, followed by 7 10-fold serial dilutions. The lowest concentration assessed was […]. After incubation, IFNγ release was measured using the LEGENDplex custom human mix and match KIT (Biolegend LEGENDplex™ Human IFN-γ Capture Bead B5, 13X #740942, LEGENDplex™ HU Essential Immune Response Panel Detection Abs, #740931, LEGENDplex™ Buffer Set A #740368). To this end, cell culture supernatant was collected and diluted 1:1 with Assay Buffer. Fluorescence measurements were done with a Quanteon Flow Cytometer from Acea Biosciences. For analysis, MFI values (median fluorescence intensity) were exported and plotted against concentrations used. The EC50 values (half maximal effective concentration) were calculated based on a variable slope and four parameter analysis using GraphPad PRISM software version 9.

This note sets out measurements from patent US20250186597A1, “TARGETED IMMUNE ACTIVATION WITH IL-18 IMMUNOCYTOKINES” (BRIGHT PEAK THERAPEUTICS AG, priority 2023, published 2025).

B1: SEQ ID NO: 30: IL-18 polypeptide: E6K, V11I, C38A, K53A, T63A, C76A, C127A (protein)
chain: YFGKLKSKLSIIRNLNDQVLFIDQGNRPLFEDMTDSDARDNAPRTIFIISMYADSQPRGMAVAISVKCEKISTLSAENKIISFKEMNPPDNIKDTKSDIIFFQRSVPGHDNKMQFESSSYEGYFLAAEKERDLFKLILKKEDELGDRSIMFTVQNED
As a reminder, the IC50 is the concentration that gives 50% inhibition. Broadly, the EC50 is the concentration at which the effect is half-maximal. With B1, the half-maximal inhibitory concentration (IC50) was 110 nM in test [1] and 80.3 nM in test [2] (IL-18BP-mediated inhibition of IFNγ secretion, IL-18 analyte 1 nM). The “PD-1^pos/PD-1^neg IC50 ratio” value in test [2] (NK-92 cells) amounted to 1.0. For the same molecule, the EC50 in test [3] is 0.012 nM.
